Residue numbers refer to the chain shown, from its start.

Common to all, as to experiment: cell-based or functional assay
In experiment [1] the target is T1, human GFRAL (human, UniProt Q6UXV0 19-394).
T1 sequence (looked up): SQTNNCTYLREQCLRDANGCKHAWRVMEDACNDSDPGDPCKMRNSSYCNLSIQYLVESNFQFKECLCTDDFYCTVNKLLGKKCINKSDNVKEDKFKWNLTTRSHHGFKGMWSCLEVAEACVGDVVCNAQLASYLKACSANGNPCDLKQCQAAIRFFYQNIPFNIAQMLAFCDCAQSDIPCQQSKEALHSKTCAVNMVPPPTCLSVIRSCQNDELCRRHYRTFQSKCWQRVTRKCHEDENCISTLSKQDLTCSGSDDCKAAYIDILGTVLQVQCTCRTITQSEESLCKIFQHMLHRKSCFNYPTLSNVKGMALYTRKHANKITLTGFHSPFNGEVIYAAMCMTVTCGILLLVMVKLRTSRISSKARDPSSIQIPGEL

Experiment [2] addresses T2, human GLP-1 receptor (human, UniProt P43220 24-463).
The target in experiment [3] is T1, human GFRAL. The source holds these as a separate data set.
In experiment [4] the target is T2, human GLP-1 receptor. The source holds these as a separate data set.

B1: MLC089 (ligand)
chain: HGEGTFTSDVSSYLEEQAAKEFIAWLVRGGGGAQPGAQPGAQPGAQPGAQPGAQPGAQPGAQPGQEPGQCPGQEPGAQPGQEPGAQPGQEPGAQPGQEPGAQPGQEPGAQPARQGDHCPLGPGRCCRLHTVRASLEDLGWADWVLSPREVQVTMCIGACPSQFRAANLHAQIKTSLHRLKPDTVPAPCCVPASYNPMVLIQKTDTGVSLQTYDDLLAKDCHCI
modifications: Moiety B (HOOC-(CH2)16-CO-gGlu-2XADO-EDA-CO-CH2) on 39C of Linker (70C of fusion polypeptide)
As for B1, the “GDF15 activity (EC50, pM, 1% HSA)” value in the experiment with human GFRAL [1] was 66.2 pM. Moreover, the “GLP-1 activity (EC50, pM, 1% HSA)” value in the experiment with human GLP-1 receptor [2] was determined as 24.4 pM. Further, in the experiment with human GFRAL [3], the “GDF15 activity (EC50, pM)” value came out at 42.9 pM. The “GLP-1 activity (EC50, pM)” value with human GLP-1 receptor [4] stood at 1.2 pM.

B2: MLC087 (ligand)
chain: B1 chain with Q69A, C70Q, G72C
modifications: Moiety B (HOOC-(CH2)16-CO-gGlu-2XADO-EDA-CO-CH2) on 41C of Linker (72C of fusion polypeptide)
Take B2: the “GDF15 activity (EC50, pM, 1% HSA)” value in the experiment with human GFRAL [1] came to 49.2 pM. Also, in the experiment with human GLP-1 receptor [2], the “GLP-1 activity (EC50, pM, 1% HSA)” value amounted to 24.4 pM. In addition, the “GDF15 activity (EC50, pM)” value with human GFRAL [3] stood at 23.8 pM. In addition, in the experiment with human GLP-1 receptor [4], the “GLP-1 activity (EC50, pM)” value is 1.4 pM.

Values taken from patent US20220017589A1 (BEIJING QL BIOPHARMACEUTICAL, published 2022).
